Data on one molecule can be found in patent publication US20240245799A1, “PREPARATION METHOD FOR ANTIBODY-DRUG CONJUGATE, AND APPLICATION” (priority 2021, published 2024).

For test [1], the system named is NCI-H2170, LK-2 and MDA-MB-231 tumor cells. As to the kind of experiment: In vitro cytotoxic activity test, overall statements on the tumor cells of Table 1. The format is cell-based, human. As to conditions: statement on Table 1. The protocol: Human lung squamous carcinoma cell NCI-H2170 and LK-2, and human breast cancer cell MDA-MB-231 were selected as the cell lines for in vitro activity detection in this experiment. The expression profile of the TROP2 antigen on the surfaces of the above human tumor cells (represented by rMFI) was determined by flow cytometry (FACS). At the same time, the dose-effect profiles of Antibody Conjugate 13, DS-1062a (the control drug, prepared according to the method described in U.S. Ser. No. 11/173,213B2), the hIgG-deruxtecan conjugate and the hIgG-A-11 conjugate on cell killing were observed. The final concentrations of the antibody drug conjugates after addition were designed as a series of 9 concentrations from […] with 500 nM as the initial concentration. The changes in killing (or inhibition) over 120 hours were observed. Chemiluminescence staining (Luminescent Cell Viability Assay) was carried out, and IC50 was calculated after reading the […] data.

Test [2] relates to Human lung squamous carcinoma cells NCI-H2170. The experiment in a line: In vivo anti-tumor experiment, subcutaneous NCI-H2170 xenograft. Also on record: species or system female nude mice. As to conditions: single dose of 5 mg/kg intravenously on day 0, FIG. 28. The method, then:
The efficacy of the combination of the present invention can be measured in vivo, i.e., an allograft or xenograft of cancer cells was implanted in rodents, and the tumors were treated with the combination. Test mice were treated with drugs or controls and monitored for several weeks or longer to measure the time to tumor doubling, log cell killing, and tumor inhibition.
Human lung squamous carcinoma cells NCI-H2170 (ATCC) were suspended in physiological saline. 4×10^7 cells were subcutaneously transplanted into the right flank of female nude mice, which were randomized into groups on day 6. Taking the grouping day as day 0, Antibody Conjugate 13, DS-1062a (the positive control drug) and the hIgG-A-11 conjugate as a negative control group were administered intravenously to the tail at a dose of 5 mg/kg respectively on day 0.

B1: DS-1062a (conjugate, chains of the INN, looked up)
VH: QVQLVQSGAEVKKPGASVKVSCKASGYTFTTAGMQWVRQAPGQGLEWMGWINTHSGVPKYAEDFKGRVTISADTSTSTAYLQLSSLKSEDTAVYYCARSGFGSSYWYFDVWGQGTLVTVSS
VL: DIQMTQSPSSLSASVGDRVTITCKASQDVSTAVAWYQQKPGKAPKLLIYSASYRYTGVPSRFSGSGSGTDFTLTISSLQPEDFAVYYCQQHYITPLTFGQGTKLEIK
modifications: deruxtecan payload
Consider B1, for which the “inhibition of tumor cell proliferation / in vitro anti-tumor activity” value in test [1] is listed as “could inhibit tumor cell proliferation significantly”. Also, the “in vivo anti-tumor activity” value in test [2] is reported as “showed anti-tumor activity”.
